In US20040146507A1:

What was measured:
[1] = target: rhesus CD18 (rhesus) (UniProt H9Z8N5); test: saturation binding, rhesus leukocytes, donor 1; Kd(app)
[2] = target: rhesus CD18 (rhesus) (UniProt H9Z8N5); test: cell-based or functional assay
[3] = target: human CD18 (human) (UniProt P05107); test: cell-based or functional assay
[4] = target: rhesus CD18 (rhesus) (UniProt H9Z8N5); test: saturation binding, rhesus leukocytes, donor 2; Kd(app)

human CD18 (human), sequence (P05107 23-769): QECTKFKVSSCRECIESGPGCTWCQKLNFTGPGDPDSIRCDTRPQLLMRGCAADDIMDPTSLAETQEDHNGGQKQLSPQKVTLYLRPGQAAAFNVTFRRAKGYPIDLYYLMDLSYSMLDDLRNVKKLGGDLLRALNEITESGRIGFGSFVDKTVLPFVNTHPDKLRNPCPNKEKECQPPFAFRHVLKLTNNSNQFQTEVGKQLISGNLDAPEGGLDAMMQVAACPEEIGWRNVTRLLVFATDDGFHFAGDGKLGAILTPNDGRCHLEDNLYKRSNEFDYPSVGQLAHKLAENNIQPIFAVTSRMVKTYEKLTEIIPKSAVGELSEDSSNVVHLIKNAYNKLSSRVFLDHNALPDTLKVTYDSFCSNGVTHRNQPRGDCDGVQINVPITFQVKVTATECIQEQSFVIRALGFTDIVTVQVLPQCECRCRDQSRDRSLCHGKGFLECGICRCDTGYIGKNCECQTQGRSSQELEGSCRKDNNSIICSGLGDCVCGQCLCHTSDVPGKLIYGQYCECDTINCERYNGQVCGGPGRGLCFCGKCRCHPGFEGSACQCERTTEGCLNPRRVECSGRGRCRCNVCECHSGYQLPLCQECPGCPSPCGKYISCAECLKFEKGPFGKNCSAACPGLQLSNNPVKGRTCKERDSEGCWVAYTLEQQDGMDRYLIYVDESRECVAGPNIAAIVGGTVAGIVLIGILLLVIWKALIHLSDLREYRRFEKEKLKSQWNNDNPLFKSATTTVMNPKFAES

Kd [1]: 3.9 nM
IC50, blocking of cell adhesion, RhLy: HuICAM [2]: 1.2 nM
IC50, blocking of cell adhesion, RhLy: HuK [2]: 1.6 nM
IC50, blocking of cell adhesion, Rh/HuCD11a: HuK [3]: 1.4 nM
Kd [4]: 4.5 nM
Substance: murine anti-human CD18 antibody MHM23
